Where a chain is given by its changes, count along the chain named.
B1: dgα5-β8 (dg-αQ5C/hCGβR8C) (ligand)
chain 1: not shown
chain 2: SKEPLRPCCRPINATLAVEKEGCPVCITVNTTICAGYCPTMTRVLQGVLPALPQVVCNYRDVRFESIRLPGCPRGVNPVVSYAVALSCQCALCRRSTTDCGGPKDHPLTCDDPRFQDSSSSKAPPPSLPSPSRLPGPSDTPILPQ
B2: dgα27-β44 (dg-αQ27C/hCGβV44C) (ligand)
chain 1: not shown
chain 2: B1 chain 2 with C8R, V44C
B3: dgα76-β44 (dg-αV76C/hCGβV44C) (ligand)
chain 1: not shown
chain 2: B1 chain 2 with C8R, V44C

Molecular target: rat LH receptor (rat, UniProt P16235)
Experiment: cell-based or functional assay

| Efficacy, cyclic AMP accumulation | Binder |
| --- | --- |
| 36% | B1 |
| 14% | B2 |
| 34% | B3 |

Source: patent publication US20060040855A1 (published 2006)
